Among the data in publication PMC4329502 are Kd values, retold here.

The target of one assay is HER2 antigen (UniProt P04626). The assay is described as follows: ELISA. (In general: In an ELISA, binding on a coated surface is turned into a signal by an enzyme label.)
Assay [1] deals with EGFR1 antigen (Homo sapiens (assumed)) (UniProt P00533). Description: ELISA.

Usually Kd stands for the free concentration of one partner at which half of the binding sites on the other are occupied at equilibrium, for simple one-to-one binding. Read a high Kd as weaker binding. ZHER2:4 affibody (designed binder) came in with a Kd with HER2 antigen of 47.9 nM. With anti-EGFR1 nanobody 7D12 (VHH), the Kd in assay [1] amounted to 3.5 nM.
